PMC5517563 (Scientific Reports, 2017)
Positions count from the first letter of the chain named. Numbers in names are those of the source.

Legend:
[1] = biological target: T1, MtACK (Methanosarcina thermophila acetate kinase) (Methanosarcina thermophila, UniProt P38502, G331Q/I332M); assay: reverse modified hydroxamate assay ([…] nm); type: biochemical; details: read-out: ATP IC50 (mM) / Acetate-forming direction
T1 construct: gene ackA; recombinant, produced in E. coli Rosetta2 (DE3) pLysS
T1 sequence (P38502 1-408 G331Q/I332M): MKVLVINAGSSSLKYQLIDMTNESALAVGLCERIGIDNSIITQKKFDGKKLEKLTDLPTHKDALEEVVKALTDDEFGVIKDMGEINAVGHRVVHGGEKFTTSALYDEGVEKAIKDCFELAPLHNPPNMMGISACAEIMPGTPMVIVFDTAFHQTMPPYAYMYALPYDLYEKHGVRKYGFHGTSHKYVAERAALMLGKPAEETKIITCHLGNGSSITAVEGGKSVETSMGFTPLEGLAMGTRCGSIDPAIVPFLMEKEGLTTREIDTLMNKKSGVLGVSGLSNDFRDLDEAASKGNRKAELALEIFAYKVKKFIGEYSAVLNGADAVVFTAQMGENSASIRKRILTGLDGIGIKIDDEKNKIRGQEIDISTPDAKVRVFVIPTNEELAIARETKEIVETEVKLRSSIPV

[2] = biological target: T2, MtACK (Methanosarcina thermophila acetate kinase) (Methanosarcina thermophila, UniProt P38502); assay: reverse modified hydroxamate assay ([…] nm); type: biochemical; details: read-out: ATP IC50 (mM) / Acetate-forming direction
T2 construct: gene ackA; recombinant, produced in E. coli Rosetta2 (DE3) pLysS
T2 sequence (P38502 1-408): T1 sequence (P38502 1-408 G331Q/I332M) with Q331G, M332I

[3] = biological target: T3, EhACK (Entamoeba histolytica acetate kinase) (Entamoeba histolytica, UniProt C4M1C3, D272A/M324I/Q323G/R274A); assay: biochemical
T3 construct: gene EHI_170010

[4] = biological target: T2, MtACK (Methanosarcina thermophila acetate kinase); assay: hydroxamate assay ([…] nm); type: biochemical; details: acetyl phosphate-forming direction; MgATP, co-substrate acetate; 100 mM Tris pH 7.5, 600 mM hydroxylamine, 37 °C; apparent
[5] = biological target: T4, EhACK (Entamoeba histolytica acetate kinase) (Entamoeba histolytica, UniProt C4M1C3); assay: reverse modified hydroxamate assay ([…] nm); type: biochemical; details: read-out: ATP IC50 (mM) / Acetate-forming direction
T4 construct: gene EHI_170010; recombinant, produced in E. coli YBS121 delta-ack delta-pta (pREP4)
T4 sequence (C4M1C3 1-392): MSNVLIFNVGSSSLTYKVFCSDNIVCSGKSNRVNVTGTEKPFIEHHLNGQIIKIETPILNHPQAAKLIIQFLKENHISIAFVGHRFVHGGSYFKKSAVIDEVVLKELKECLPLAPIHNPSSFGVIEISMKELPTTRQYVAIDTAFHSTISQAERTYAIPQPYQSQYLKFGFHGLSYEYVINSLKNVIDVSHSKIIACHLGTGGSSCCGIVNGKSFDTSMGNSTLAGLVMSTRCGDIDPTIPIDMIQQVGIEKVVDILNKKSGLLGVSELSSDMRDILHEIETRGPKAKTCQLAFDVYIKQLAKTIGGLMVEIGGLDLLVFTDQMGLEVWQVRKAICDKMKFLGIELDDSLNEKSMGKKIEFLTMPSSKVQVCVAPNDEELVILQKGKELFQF

[6] = biological target: T1, MtACK (Methanosarcina thermophila acetate kinase); assay: hydroxamate assay ([…] nm); type: biochemical; details: acetyl phosphate-forming direction; MgATP, co-substrate acetate; 100 mM Tris pH 7.5, 600 mM hydroxylamine, 37 °C; apparent
[7] = biological target: T5, EhACK (Entamoeba histolytica acetate kinase) (Entamoeba histolytica, UniProt C4M1C3, M324A/Q323A); assay: biochemical
T5 construct: gene EHI_170010

[8] = biological target: T6, EhACK (Entamoeba histolytica acetate kinase) (Entamoeba histolytica, UniProt C4M1C3, M324I/Q323G); assay: biochemical
T6 construct: gene EHI_170010

[9] = substrate: CC(=O)O; assay: purified protein; details: acetyl phosphate-forming direction, co-substrate MgATP, 100 mM Tris pH 7.5, 600 mM hydroxylamine, 37 °C, apparent, pH 7.5
[10] = substrate: Nc1ncnc2c1ncn2[C@@H]1O[C@H](COP(=O)(O)OP(=O)(O)O)[C@@H](O)[C@H]1O; assay: purified protein; details: acetate-forming direction, MgADP, co-substrate acetyl phosphate, 100 mM Tris pH 7.5, 37 °C, apparent
[11] = substrate: CC(=O)OP(=O)(O)O; assay: purified protein; details: acetate-forming direction, apparent
[12] = substrate: O=P(O)(O)O; assay: purified protein; details: acetate-forming direction, co-substrate acetyl phosphate, 10 mM MgCl2, 100 mM Tris-HCl pH 7.0, 37 °C, apparent, pH 7.0
[13] = substrate: O=P(O)(O)OP(=O)(O)O; assay: purified protein; details: acetyl phosphate-forming direction, co-substrate acetate, 5 mM MgCl2, morpholinoethanesulfonic acid pH 5.5, 600 mM hydroxylamine, 45 °C, apparent
[14] = co-substrate MgADP, 100 mM Tris pH 7.5, 37 °C
[15] = co-substrate Pi, 10 mM MgCl2, 100 mM Tris-HCl pH 7.0, 37 °C

O=P(O)(O)OP(=O)(O)O [PPi]
IC50 [1]: 4 ± 0.28 mM
IC50 [2]: 3.3 ± 0.06 mM

Nc1ncnc2c1ncn2[C@@H]1O[C@H](COP(=O)(O)OP(=O)(O)OP(=O)(O)O)[C@@H](O)[C@H]1O [ATP]
IC50 [3]: 2.4 ± 0.19 mM
Km [4]: 1700 ± 30 µM
IC50 [5]: 6.1 ± 0.05 mM
Km [6]: 9400 ± 270 µM
IC50 [7]: 4.8 ± 0.09 mM
IC50 [8]: 4.2 ± 0.3 mM

B1: MtACK (Methanosarcina thermophila acetate kinase) (Methanosarcina thermophila) (protein)
chain: T1 sequence (P38502 1-408 G331Q/I332M) with Q331G, M332I
Km [9]: 20000 ± 300 µM
kcat [9]: 789 s⁻¹
kcat/Km [9]: 39000 M⁻¹ s⁻¹
Km [10]: 1800 ± 130 µM
kcat [10]: 1915 ± 15 s⁻¹
kcat/Km [10]: 1.07e+06 ± 69000 M⁻¹ s⁻¹
Km [11, 14]: 1200 ± 90 µM
kcat [11, 14]: 1550 ± 54 s⁻¹
kcat/Km [11, 14]: 1.29e+06 ± 56000 M⁻¹ s⁻¹

B2: MtACK (Methanosarcina thermophila acetate kinase) (Methanosarcina thermophila; G331Q/I332M) (protein)
chain: T1 sequence (P38502 1-408 G331Q/I332M)
Km [10]: 5700 ± 560 µM
kcat [10]: 12 ± 0.5 s⁻¹
kcat/Km [10]: 2000 ± 140 M⁻¹ s⁻¹

B3: EhACK (Entamoeba histolytica acetate kinase) (Entamoeba histolytica HM-1:IMSS) (protein)
chain: T4 sequence (C4M1C3 1-392)
Km [12]: 14000 ± 1200 µM
kcat [12]: 196 s⁻¹
kcat/Km [12]: 14000 M⁻¹ s⁻¹
Km [11, 15]: 570 ± 30 µM
kcat [11, 15]: 266 ± 12 s⁻¹
kcat/Km [11, 15]: 467000 ± 44000 M⁻¹ s⁻¹
Km [13]: 2100 ± 330 µM
kcat [13]: 0.9 ± 0.03 s⁻¹
kcat/Km [13]: 440 ± 60 M⁻¹ s⁻¹
